For this assay, the target named is T1, recombinant human granulocyte colony stimulating factor receptor (GCSF-R) (R & D Systems, cat# 381GR/CF), … (human, UniProt Q99062 25-621, limits assumed, biotinylated using NHS-LC-LC-biotin (sites not given)).
T1 construct: Bought reagent; also called b-GCSF-R; G-CSF receptor
T1 sequence (looked up): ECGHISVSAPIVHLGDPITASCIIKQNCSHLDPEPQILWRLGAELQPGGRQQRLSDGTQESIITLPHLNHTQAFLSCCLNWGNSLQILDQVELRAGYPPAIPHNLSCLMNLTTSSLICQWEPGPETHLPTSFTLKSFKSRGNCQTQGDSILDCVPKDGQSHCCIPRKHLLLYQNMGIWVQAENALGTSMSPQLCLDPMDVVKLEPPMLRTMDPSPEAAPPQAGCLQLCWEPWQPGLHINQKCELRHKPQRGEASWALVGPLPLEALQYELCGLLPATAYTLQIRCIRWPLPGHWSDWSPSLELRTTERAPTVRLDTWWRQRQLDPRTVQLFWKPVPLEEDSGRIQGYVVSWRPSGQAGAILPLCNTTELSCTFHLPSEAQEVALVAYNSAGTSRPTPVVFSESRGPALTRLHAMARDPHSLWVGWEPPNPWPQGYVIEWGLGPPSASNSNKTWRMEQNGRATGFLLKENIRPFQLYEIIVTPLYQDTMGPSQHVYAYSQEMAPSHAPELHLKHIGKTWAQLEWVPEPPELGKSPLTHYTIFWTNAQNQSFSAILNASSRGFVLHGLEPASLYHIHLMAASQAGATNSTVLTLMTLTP
The assay is described as follows: biolayer interferometry (Octet), biotinylated GCSF-R on streptavidin sensors, soluble lysate fractions, used to quantify the protein against a standard curve. How it is done:
Soluble fractions were prepared by sonication followed by centrifugation. Normalized culture broth samples (400 μL) were sonicated with the Cell Lysis Automated Sonication System (CLASS, Scinomix) with a 24 probe tip horn. The lysates were centrifuged at 14,000×rpm for 20 minutes (4° C.) and the supernatants collected (soluble fraction). Further dilutions of soluble samples for biolayer interferometry analysis were performed in ForteBio's Sample Diluent (PN, described below).
The lyophilized recombinant human granulocyte colony stimulating factor receptor (GCSF-R) (R & D Systems, cat# 381GR/CF) was reconstituted in PBS buffer (Sigma, P3813) to 0.5 mg/mL and biotinylated using NHS-LC-LC-biotin (Pierce, 21343) according to the method described in ForteBio Technical Note: “Biotinylation of Protein for Immobilization onto Streptavidin Sensors.” The biosensors (Streptavidin High Binding FA Biosensors, ForteBio, 18-0009) were hydrated in 1× kinetics buffer (10-fold dilution of 10× Kinetics Buffer, ForteBio, 18-5032 into PBS) for at least 10 minutes. […]
The soluble fraction of the strain array samples were diluted 20-fold into 1× kinetics buffer. […] The samples were read at 200 rpm, 30° C., for 120 sec, and quantitation was calculated from a standard curve at 12, 6, 3, 1.5, 0.75, 0.375, 0.188, and in some cases as low as 0.094 μg/ml.

B1: recombinant human G-CSF protein comprising an N-terminal methionine (Met-G-CSF), produced in Pseudomonas fluorescens (ligand)
chain: MTPLGPASSLPQSFLLKCLEQVRKIQGDGAALQEKLCATYKLCHPEELVLLGHSLGIPWAPLSSCPSQALQLAGCLSQLHSGLFLYQGLLQALEGISPELGPTLDTLQLDVADFATTIWQQMEELGMAPALQPTQGAMPAFASAFQRRAGGVLVASHLQSFLEVSYRVLRHLAQP
notes: Tested as soluble fraction of P. fluorescens lysates, diluted, not purified; also called hG-CSF
Take B1: the binding result was “binds”.

The record behind these values is patent US20110245474A1 (PFENEX, published 2011).
